Three substances from article PMC11276676 can be followed below.

What all share (test): AUC; sedimentation velocity, absorbance detection, 20 °C, 20 mM Hepes-NaOH with 1 mM TCEP, without (pH 6.79) or with (pH 6.87) 150 mM NaCl, 42,000 rpm, protein 1.30-1.53 and 2.73-5.98 µM; monomer to dimer
Experiment [1] has as its target Helicobacter pylori adenylosuccinate synthetase with His6-tag fused on its N-terminus (Helicobacter pylori (reference strain 26695)) (UniProt P56137).
For experiment [2], the target named is Helicobacter pylori adenylosuccinate synthetase with His6-tag on the C-terminus (Helicobacter pylori (reference strain 26695)) (UniProt P56137).
In experiment [3] the target is wild-type Helicobacter pylori adenylosuccinate synthetase (Helicobacter pylori (reference strain 26695)) (UniProt P56137).

As a reminder, the stoichiometry N is the number of molecules, sites or subunits per partner or assembly.

In experiment [1], “Helicobacter pylori adenylosuccinate synthetase with His6-tag fused on its N-terminus (from UniProt P56137 1-411) (enzyme)” registered a stoichiometry N of 2.
Consider “Helicobacter pylori adenylosuccinate synthetase with His6-tag on the C-terminus (from UniProt P56137 1-411) (enzyme)”, for which the stoichiometry N in experiment [2] worked out at 2.
For the substance “wild-type Helicobacter pylori adenylosuccinate synthetase (from UniProt P56137 1-411) (enzyme)”, the stoichiometry N in experiment [3] came to 2.
